Reference: patent publication US20240376170A1 (BRIGHT PEAK THERAPEUTICS, published 2024)
Bridges are numbered along the chain shown (N, C = ends). Primed or numbered codes have the meaning given here. [ ]: non-standard residue; d: D form. Ygp = O-(8x polyethylene glycol-amino)-tyrosine (Tyr, amino-capped PEG8); Yn3 = O-(9x polyethylene glycol-azido)-tyrosine (Tyr, azide-capped PEG9); Ygp(3) = O-(PEG8-amino)-tyrosine; Yn3(3) = O-(PEG9-azido)-tyrosine; hSer = N[C@@H](CCO)C(=O)O; Nle = CCCC[C@H](N)C(=O)O

B1: CMP-150 (ligand)
chain: APTSSSTKKTQLQLEHLLLDLK[Nle]ILNGINNYKNPKLTR[Nle]L[hSer][Yn3(3)]KF[Ygp(3)][Nle]PKKATELKHLQCLEEELKPLEEVL[hSer]LAQSKNFHLRPRDLISNINVIVLELKGSETTF[hSer]CEYADETATIVEFLNRWITFSQSIISTLT
modifications: also: further groups not given here
B2: CMP-147 (ligand)
chain: APTSSSTKKTQLKLEHLLLDLQ[Nle]ILNGINNYKNPKLTR[Nle]L[hSer][Yn3(3)]KF[Ygp(3)][Nle]PKKATELKHLQCLEEELKPLEEVL[hSer]LAQSKNFHLRPRDLISNINVIVLELKGSETTF[hSer]CEYADETATIVEFLNRWITFSQSIISTLT
modifications: also: further groups not given here
B3: CMP-146 (ligand)
chain: APTSSSTKKTKLQLEHLLLDLQ[Nle]ILNGINNYKNPKLTR[Nle]L[hSer][Yn3(3)]KF[Ygp(3)][Nle]PKKATELKHLQCLEEELKPLEEVL[hSer]LAQSKNFHLRPRDLISNINVIVLELKGSETTF[hSer]CEYADETATIVEFLNRWITFSQSIISTLT
modifications: also: further groups not given here
B4: CMP-148, MMP2 cleaved (ligand)
chain: APTSSSTKKTQLQLKHLLLDLQ[Nle]ILNGINNYKNPKLTR[Nle]L[hSer][Yn3(3)]KF[Ygp(3)][Nle]PKKATELKHLQCLEEELKPLEEVL[hSer]LAQSKNFHLRPRDLISNINVIVLELKGSETTF[hSer]CEYADETATIVEFLNRWITFSQSIISTLT
modifications: also: MMP2-cleaved form, remnant not given here, Lys15 side chain attached moiety
B5: CMP-148 (ligand)
chain: APTSSSTKKTQLQLKHLLLDLQ[Nle]ILNGINNYKNPKLTR[Nle]L[hSer][Yn3(3)]KF[Ygp(3)][Nle]PKKATELKHLQCLEEELKPLEEVL[hSer]LAQSKNFHLRPRDLISNINVIVLELKGSETTF[hSer]CEYADETATIVEFLNRWITFSQSIISTLT
modifications: also: further groups not given here
B6: CMP-146, MMP2 cleaved (ligand)
chain: APTSSSTKKTKLQLEHLLLDLQ[Nle]ILNGINNYKNPKLTR[Nle]L[hSer][Yn3(3)]KF[Ygp(3)][Nle]PKKATELKHLQCLEEELKPLEEVL[hSer]LAQSKNFHLRPRDLISNINVIVLELKGSETTF[hSer]CEYADETATIVEFLNRWITFSQSIISTLT
modifications: also: MMP2-cleaved form, remnant not given here, Lys11 side chain attached moiety
B7: CMP-149 (ligand)
chain: APTSSSTKKTQLQLEHLLKDLQ[Nle]ILNGINNYKNPKLTR[Nle]L[hSer][Yn3(3)]KF[Ygp(3)][Nle]PKKATELKHLQCLEEELKPLEEVL[hSer]LAQSKNFHLRPRDLISNINVIVLELKGSETTF[hSer]CEYADETATIVEFLNRWITFSQSIISTLT
modifications: also: further groups not given here
B8: CMP-150, MMP2 cleaved (ligand)
chain: APTSSSTKKTQLQLEHLLLDLK[Nle]ILNGINNYKNPKLTR[Nle]L[hSer][Yn3(3)]KF[Ygp(3)][Nle]PKKATELKHLQCLEEELKPLEEVL[hSer]LAQSKNFHLRPRDLISNINVIVLELKGSETTF[hSer]CEYADETATIVEFLNRWITFSQSIISTLT
modifications: not fully specified; also: further groups not given here
B9: CMP-149, MMP2 cleaved (ligand)
chain: APTSSSTKKTQLQLEHLLKDLQ[Nle]ILNGINNYKNPKLTR[Nle]L[hSer][Yn3(3)]KF[Ygp(3)][Nle]PKKATELKHLQCLEEELKPLEEVL[hSer]LAQSKNFHLRPRDLISNINVIVLELKGSETTF[hSer]CEYADETATIVEFLNRWITFSQSIISTLT
modifications: also: MMP2-cleaved form, remnant not given here, Lys19 side chain attached moiety
B10: CMP-147, MMP2 cleaved (ligand)
chain: APTSSSTKKTQLKLEHLLLDLQ[Nle]ILNGINNYKNPKLTR[Nle]L[hSer][Yn3(3)]KF[Ygp(3)][Nle]PKKATELKHLQCLEEELKPLEEVL[hSer]LAQSKNFHLRPRDLISNINVIVLELKGSETTF[hSer]CEYADETATIVEFLNRWITFSQSIISTLT
modifications: also: MMP2-cleaved form, remnant not given here, Lys13 side chain attached moiety
B11: CMP-319 (ligand)
chain: RGRRVANLVGAPTSSSTKKTQLQLEHLLLDLQEILNGINNYKNPKLTR[Nle]L[hSer][Yn3]KF[Ygp][Nle]PKKATELKHLQCLEEELKPLEEVL[hSer]LAQSKNFHLRPRDLISNINVIVLELKGSETTF[hSer]CEYADETATIVEFLNRWITFSQSIISTLT
modifications: lactam N-33; ends not checked

Assays:
[1] = molecular target: T1, IL-2 receptor βγ complex on human T cells (human, UniProt P14784 27-551; P31785 23-369); assay: cell-based or functional assay
T1 sequence (looked up) 1: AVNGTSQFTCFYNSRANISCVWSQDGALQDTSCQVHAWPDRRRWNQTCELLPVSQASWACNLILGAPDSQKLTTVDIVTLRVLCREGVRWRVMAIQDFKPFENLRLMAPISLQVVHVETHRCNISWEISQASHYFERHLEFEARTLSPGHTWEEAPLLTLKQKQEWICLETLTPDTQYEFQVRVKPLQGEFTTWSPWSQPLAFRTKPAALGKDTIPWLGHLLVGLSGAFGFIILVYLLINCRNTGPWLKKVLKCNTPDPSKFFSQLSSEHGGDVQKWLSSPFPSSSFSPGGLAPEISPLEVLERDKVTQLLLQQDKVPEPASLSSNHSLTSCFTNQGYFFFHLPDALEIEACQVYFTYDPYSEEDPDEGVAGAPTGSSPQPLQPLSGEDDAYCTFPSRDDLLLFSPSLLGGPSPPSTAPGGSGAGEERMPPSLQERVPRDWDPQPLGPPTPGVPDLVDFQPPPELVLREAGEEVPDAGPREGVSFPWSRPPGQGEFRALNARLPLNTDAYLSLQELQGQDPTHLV
T1 sequence (looked up) 2: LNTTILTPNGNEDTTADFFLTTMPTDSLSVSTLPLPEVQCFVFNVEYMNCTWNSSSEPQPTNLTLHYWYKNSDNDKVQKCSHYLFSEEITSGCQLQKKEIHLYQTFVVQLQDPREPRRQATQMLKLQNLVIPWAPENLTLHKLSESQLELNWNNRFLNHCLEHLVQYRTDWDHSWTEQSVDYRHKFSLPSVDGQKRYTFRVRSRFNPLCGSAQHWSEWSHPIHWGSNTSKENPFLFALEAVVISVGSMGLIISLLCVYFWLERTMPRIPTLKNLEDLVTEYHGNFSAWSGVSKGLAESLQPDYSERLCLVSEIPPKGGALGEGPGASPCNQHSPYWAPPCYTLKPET

[2] = molecular target: T2, IL-2Rβγ on HEK-Blue IL-2Rβγ reporter cells (InvivoGen) (UniProt P14784 27-551; P31785 23-369, limits assumed); assay: cell-based or functional assay
T2 sequence (looked up) 1: T1 sequence (looked up) 1
T2 sequence (looked up) 2: T1 sequence (looked up) 2

[3] = molecular target: T3, recombinant human IL-2 receptor beta containing a His-tag and Avi-tag (human, UniProt P14784 27-239); assay: BLI (Octet R8), receptor on SAX2 sensor
T3 construct: Bought; attached to the SAX2 biosensor; also called CD122; IL-2R β; not shown: His-tag and Avi-tag
T3 sequence (looked up): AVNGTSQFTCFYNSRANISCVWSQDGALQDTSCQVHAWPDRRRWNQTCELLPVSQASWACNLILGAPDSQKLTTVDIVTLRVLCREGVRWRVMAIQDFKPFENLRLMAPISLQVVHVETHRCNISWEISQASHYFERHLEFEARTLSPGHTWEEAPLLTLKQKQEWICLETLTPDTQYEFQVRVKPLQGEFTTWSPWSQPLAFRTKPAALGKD
Experimental: (§1) Bilayer interferometry (BLI) assays were used to measure the binding constants between activatable IL-2 polypeptides (and activated versions thereof) to IL-2 receptor subunits or receptor complexes. BLI assays were conducted on an Octet® R8 instrument. Assay plates were 96 well, polypropylene, F-bottom (chimney well), black microplates (Greiner Bio-one, Cat. No: 655209). The biosensors were Octet® SAX2 (Sartorius, Cat. No: 18-5136). The assay buffer was 1X Kinetic Buffer (Sartorius, Cat. no: 18-5136) or Phosphate Buffered Saline (PBS) that contained 0.02% (v: v) Tween 20 (Polysorbate 20) and 0.1% (w/v) bovine serum albumin (BSA). The sensor was regenerated between measurements in 10 mM glycine pH 2.7 buffer.
(§2) Sensor attached receptors were either recombinant human IL-2 receptor beta containing a His-tag and Avi-tag™ (R&D Systems™) or an Avi-tag™ Fc with human IL-2R beta and IL-2R gamma attached (Acrobiosystems Cat. no: ACRB-ILG-H₈₂F3-25UG). Receptors were reconstituted from lyophilized powder to 500 μg/ml in PBS. Analytes were diluted in Kinetic buffer to 300 nM, then serially diluted to lower concentrations.

[4] = molecular target: T4, Avi-tag Fc with human IL-2R beta and IL-2R gamma attached (Acrobiosystems ACRB-ILG-H82F3-25UG) (human, UniProt P14784 27-239; P31785 23-262); assay: BLI (Octet R8), receptor on SAX2 sensor
T4 construct: Bought; attached to the SAX2 biosensor; also called CD122 CD132; IL-2R βγ; not shown: Fc and Avi-tag
T4 sequence (looked up) 1: T3 sequence (looked up)
T4 sequence (looked up) 2: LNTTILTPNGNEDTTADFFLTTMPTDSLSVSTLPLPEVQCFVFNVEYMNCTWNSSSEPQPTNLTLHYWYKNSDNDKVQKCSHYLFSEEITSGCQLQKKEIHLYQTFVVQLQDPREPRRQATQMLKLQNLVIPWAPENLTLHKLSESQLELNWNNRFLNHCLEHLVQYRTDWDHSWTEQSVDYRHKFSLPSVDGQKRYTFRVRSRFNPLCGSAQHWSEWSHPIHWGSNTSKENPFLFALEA
Experimental: as §1, §2

Average EC50, pSTAT5 Assay (T cells), intact molecule [1] [nM]	Average EC50, pSTAT5 Assay (T cells), MMP2 cleaved molecule [1] [nM]	further results	Binder
6.38	–	–	B1
3.86	–	–	B2
4.29	–	–	B3
–	0.95	–	B4
3.57	–	–	B5
–	0.92	–	B6
46.7	–	–	B7
–	0.45	–	B8
–	9.56	–	B9
–	1.29	–	B10
–	–	Average EC50, HEK-Blue IL-2R (CD122+, CD132+) Reporter Assay, intact molecule [2]: 1.05 nM; Kd [3]: 59.5 nM; koff [3]: 0.0122 s⁻¹; kon [3]: 206000 M⁻¹ s⁻¹; Kd [4]: 9.19 nM; koff [4]: 0.000786 s⁻¹; kon [4]: 85500 M⁻¹ s⁻¹	B11
